Results as given in paper PMC7673040.
pKd: −log10 of the molar value.

Experiments:
[1] = target: ribosome-nascent chain complex bearing the first ~90 amino acids of pPL(ss), labelled with BODIPY-FL on the nascent chain (bovine); test: other fluorescence titration; equilibrium FRET titration: SRP^TMR titrated into 1 nM RNC^BDP; donor emission at 517 nm; fit to Eq. (4); 25 °C, Assay buffer with 1 mg/mL BSA; no NAC
[2] = target: ribosome-nascent chain complex bearing the first ~90 amino acids of pPL(ss), labelled with BODIPY-FL on the nascent chain (bovine); test: other fluorescence titration; equilibrium FRET titrations of SRP^TMR into 1 nM RNC^BDP with unlabeled NAC premixed (0-400 nM for RNC(ss), 0-62.5 nM for RNC(ssmt)); global fit to the anti-cooperative co-binding model, Eq. (8); 25 °C, Assay buffer with 1 mg/mL BSA
[3] = target: ribosome-nascent chain complex bearing the first ~90 amino acids of pPL(ssmt), labelled with BODIPY-FL on the nascent chain (bovine) (UniProt P01239); test: as above
[4] = target: signal recognition particle (SRP), human, labelled with Cy3B on SRP54 (C47) (human) (UniProt P61011); test: stopped-flow FRET kinetics; as a1 but on RNC(ssmt) with HSW(RRL) (high salt wash from 200 nM rabbit reticulocyte ribosome)
[5] = target: signal recognition particle (SRP), human, labelled with Cy3B on SRP54 (C47) (human) (UniProt P61011); test: stopped-flow FRET kinetics; as a1, on RNC(ssmt) of different nascent chain lengths, with 300 nM NAC; fit to a constant kon
[6] = target: signal recognition particle (SRP), human, labelled with Cy3B on SRP54 (C47) (human) (UniProt P61011); test: stopped-flow FRET kinetics; as a1, on RNC(ssmt) of different nascent chain lengths, no NAC; fit to a constant kon
[7] = target: signal recognition particle (SRP), human, labelled with Cy3B on SRP54 (C47) (human) (UniProt P61011); test: stopped-flow FRET kinetics; as a1, on RNC(ss) of different nascent chain lengths, with 300 nM NAC; kon against nascent chain length fit to Eq. (18)
[8] = target: signal recognition particle (SRP), human, labelled with Cy3B on SRP54 (C47) (human) (UniProt P61011); test: stopped-flow FRET kinetics; as a1 but on RNC(ssmt2); no NAC, no HSW
[9] = target: signal recognition particle (SRP), human, labelled with Cy3B on SRP54 (C47) (human) (UniProt P61011); test: stopped-flow FRET kinetics
[10] = target: signal recognition particle (SRP), human, labelled with Cy3B on SRP54 (C47) (human) (UniProt P61011); test: stopped-flow FRET kinetics; as a1 but on RNC(ssmt2) with HSW(RRL)
[11] = target: signal recognition particle (SRP), human, labelled with Cy3B on SRP54 (C47) (human) (UniProt P61011); test: stopped-flow FRET kinetics; as a1 but on RNC(ssmt) with 300 nM NAC (saturating)
[12] = target: signal recognition particle (SRP), human, labelled with Cy3B on SRP54 (C47) (human) (UniProt P61011); test: stopped-flow FRET kinetics; as a1 but SRP^Cy3B pre-incubated with 200 nM RNC(ssmt); no NAC, no HSW
[13] = target: signal recognition particle (SRP), human, labelled with Cy3B on SRP54 (C47) (human) (UniProt P61011); test: stopped-flow FRET kinetics; as a1 but on RNC(ssmt2) with 300 nM NAC
[14] = target: signal recognition particle (SRP), human, labelled with Cy3B on SRP54 (C47) (human) (UniProt P61011); test: stopped-flow FRET kinetics; as a1, on RNC(ss) of different nascent chain lengths, no NAC; kon against nascent chain length fit to Eq. (18)

Substance | pKd [1] | KD for NAC-bound RNC (α•Kd,SRP) [2] [nM] | pKd [2] | KD for NAC-bound RNC (α•Kd,SRP) [3] [nM] | fold reduction of kon by HSW(RRL) [4] [fold] | kon [5] [M⁻¹ s⁻¹] | kon [6] [M⁻¹ s⁻¹] | kon,max (fit of kon against nascent chain length) [7] [M⁻¹ s⁻¹] | kon,min (fit of kon against nascent chain length) [7] [M⁻¹ s⁻¹] | fold lower kon than on RNC(ss) [8] [fold] | kon [9] [M⁻¹ s⁻¹] | fold lower kon than on RNC(ss) [10] [fold] | fold lower kon than on RNC(ss) [11] [fold] | kon [12] [M⁻¹ s⁻¹] | fold lower kon than on RNC(ss) [13] [fold] | kon,max (fit of kon against nascent chain length) [14] [M⁻¹ s⁻¹] | kon,min (fit of kon against nascent chain length) [14] [M⁻¹ s⁻¹]
signal recognition particle (SRP), human, labelled with tetramethylrhodamine (TMR) at residue 12 of SRP54 (from UniProt P61011 1-504; P09132 1-144; P49458 1-86; P37108 1-136; Q9UHB9 1-627; O76094 1-671) (complex) | 9.36 | 2.4 | 9.44 | 4.5 | – | – | – | – | – | – | – | – | – | – | – | – | –
soluble SRP receptor SRαβΔTM with the GTPase-deficient mutation SRα R458A, labelled with Atto647n (from UniProt P08240 1-638; Q9Y5M8 1-271) (complex) | – | – | – | – | 20 | 13000 | 570000 | 1.3e+06 | 22000 | 20 | 1e+06 | 100 | 40 | 500000 | 100 | 940000 | 400000
